The values that follow are results of earlier work, collected in patent US8632989B1, “Mutant insulin degrading enzyme and methods of use” (University of Kentucky Research Foundation, priority 2011, dated 2014).

This series has as its target T1, Abz-GGFLRKHGQ-EDDnp (Rattus norvegicus, UniProt P35559).
T1 construct: begin at methionine 42, which is believed to be the in vivo start site, and extend through the native C-terminal residue leucine 1019; hexahistidine with linker holding a TEV protease site (N, cleaved yes); made in house; host or cells: SF9 insect cells (baculovirus, pFastBac HTb)
T1 sequence (P35559 42-1019): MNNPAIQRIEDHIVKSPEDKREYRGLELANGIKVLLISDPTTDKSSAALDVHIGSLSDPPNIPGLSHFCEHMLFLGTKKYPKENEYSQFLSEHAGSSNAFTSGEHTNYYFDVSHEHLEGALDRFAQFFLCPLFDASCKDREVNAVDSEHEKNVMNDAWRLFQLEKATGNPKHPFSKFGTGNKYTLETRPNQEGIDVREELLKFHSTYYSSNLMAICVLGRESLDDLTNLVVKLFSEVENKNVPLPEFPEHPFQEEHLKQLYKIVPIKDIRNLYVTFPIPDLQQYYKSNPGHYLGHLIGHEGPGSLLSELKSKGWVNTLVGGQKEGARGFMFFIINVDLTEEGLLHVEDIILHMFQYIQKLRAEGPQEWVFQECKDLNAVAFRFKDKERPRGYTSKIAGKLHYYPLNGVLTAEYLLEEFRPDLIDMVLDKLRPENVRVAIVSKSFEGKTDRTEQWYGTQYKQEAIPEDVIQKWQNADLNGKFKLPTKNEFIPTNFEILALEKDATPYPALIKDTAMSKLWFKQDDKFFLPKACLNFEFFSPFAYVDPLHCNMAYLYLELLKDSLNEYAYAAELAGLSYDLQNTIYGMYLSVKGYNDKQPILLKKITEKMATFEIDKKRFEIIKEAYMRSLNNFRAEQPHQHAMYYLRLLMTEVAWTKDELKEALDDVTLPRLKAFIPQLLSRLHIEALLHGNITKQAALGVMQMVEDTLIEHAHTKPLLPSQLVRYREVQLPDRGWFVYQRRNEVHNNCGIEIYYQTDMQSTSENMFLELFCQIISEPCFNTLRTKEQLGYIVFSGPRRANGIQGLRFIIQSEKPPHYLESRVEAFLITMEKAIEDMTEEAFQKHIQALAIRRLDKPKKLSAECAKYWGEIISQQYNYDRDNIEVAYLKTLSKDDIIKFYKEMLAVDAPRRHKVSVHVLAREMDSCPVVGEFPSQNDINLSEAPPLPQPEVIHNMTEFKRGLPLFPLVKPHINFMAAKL
To be noted: reference [15]; cited from earlier work.

B1: IDE: Native rat insulin degrading enzyme (SEQ ID NO:1), expressed as hexahistidine fusion protein in Sf9 insect cells (protein, listed as Rattus norvegicus)
chain: MRNGLVWLLHPALPSTLHSILGARPPPVKRLCGFPKQIYSTMNNPAIQRIEDHIVKSPEDKREYRGLELANGIKVLLISDPTTDKSSAALDVHIGSLSDPPNIPGLSHFCEHMLFLGTKKYPKENEYSQFLSEHAGSSNAFTSGEHTNYYFDVSHEHLEGALDRFAQFFLCPLFDASCKDREVNAVDSEHEKNVMNDAWRLFQLEKATGNPKHPFSKFGTGNKYTLETRPNQEGIDVREELLKFHSTYYSSNLMAICVLGRESLDDLTNLVVKLFSEVENKNVPLPEFPEHPFQEEHLKQLYKIVPIKDIRNLYVTFPIPDLQQYYKSNPGHYLGHLIGHEGPGSLLSELKSKGWVNTLVGGQKEGARGFMFFIINVDLTEEGLLHVEDIILHMFQYIQKLRAEGPQEWVFQECKDLNAVAFRFKDKERPRGYTSKIAGKLHYYPLNGVLTAEYLLEEFRPDLIDMVLDKLRPENVRVAIVSKSFEGKTDRTEQWYGTQYKQEAIPEDVIQKWQNADLNGKFKLPTKNEFIPTNFEILALEKDATPYPALIKDTAMSKLWFKQDDKFFLPKACLNFEFFSPFAYVDPLHCNMAYLYLELLKDSLNEYAYAAELAGLSYDLQNTIYGMYLSVKGYNDKQPILLKKITEKMATFEIDKKRFEIIKEAYMRSLNNFRAEQPHQHAMYYLRLLMTEVAWTKDELKEALDDVTLPRLKAFIPQLLSRLHIEALLHGNITKQAALGVMQMVEDTLIEHAHTKPLLPSQLVRYREVQLPDRGWFVYQRRNEVHNNCGIEIYYQTDMQSTSENMFLELFCQIISEPCFNTLRTKEQLGYIVFSGPRRANGIQGLRFIIQSEKPPHYLESRVEAFLITMEKAIEDMTEEAFQKHIQALAIRRLDKPKKLSAECAKYWGEIISQQYNYDRDNIEVAYLKTLSKDDIIKFYKEMLAVDAPRRHKVSVHVLAREMDSCPVVGEFPSQNDINLSEAPPLPQPEVIHNMTEFKRGLPLFPLVKPHINFMAAKL
modifications: hexahistidine tag; wild-type Insulin Degrading Enzyme (IDE) from rat
Take B1: the “increase of cleavage rate of Abz-GGFLRKHGQ-EDDnp by ATP” value is listed as “more than 40 fold”.
